Experimental data from PMC7710018, “Restoration of motor learning in a mouse model of Rett syndrome following long-term treatment with a novel small-molecule activator of TrkB” (Disease Models & Mechanisms, 2020).

Tests used:
3T3-TrkA cells = experiment: NIH-3T3 cell survival (ViaLight); format: cell-based, mouse; conditions: serum-free medium, 72-96 h, PTX-BD4-3 1000 nM
Method: (§1) Fig. 2. PTX-BD4-3 promotes cell survival preferentially through TrkB. (A-D) Neurotrophin receptor-expressing NIH-3T3 cells were incubated in culture medium (CM) alone or in medium plus either the indicated neurotrophins (BDNF, NGF, NT-3) or PTX-BD4-3 or its parent compound LM22A-4 for 72-96 h, after which survival was measured using the ViaLight assay. […] Scale bar: 10 μm. (B) Survival dose-response curves for PTX-BD4-3 and LM22A-4 in 3T3-TrkB cells. ^§P≤0.001 compared to CM alone. (C) Representative images of 3T3-TrkA, 3T3-TrkC and 3T3-p75 cells grown in the presence of CM alone, CM+neurotrophin or CM+PTX-BD4-3. Scale bar: 10 μm. NGF, NT-3 and BDNF served as positive controls for 3T3-TrkA, 3T3-TrkC and 3T3-p75 cells, respectively. (D) PTX-BD4-3 (1000 nM) had no effect on survival of 3T3-TrkA, 3T3-TrkC or 3T3-p75 cells compared to medium alone. *P≤0.05, ***P≤0.001 compared to CM alone. For each determination in B and D, n=10-32 wells derived from four to five independent experiments. Statistical significance was determined by one-way ANOVA with Dunnett's post hoc multiple comparison test. (E,F) […] protein was extracted from human cementoblast-like cell (HCEM) cultures treated with either culture medium alone, BDNF, LM22A-4 or PTX-BD4-3, immunoprecipitated with anti-TrkB antibody and then probed sequentially on western blots with anti-Shc and anti-TrkB antibody. The ratio of Shc to TrkB in treated cultures was normalized and compared to control (CM alone) using Kruskal-Wallis ANOVA followed by Dunn's multiple comparisons test (*P≤0.05, ^§P≤0.001). n=13 independent experiments, and each protein sample was run on duplicate western blots and the normalized values averaged. RLUs, relative light units.
(§2) Mouse NIH-3T3 cells expressing TrkA (NIH-3T3-TrkA) were provided by Dr William Mobley (University of California at San Diego, San Diego, CA, USA), and NIH-3T3 cells expressing TrkB (NIH-3T3-TrkB) or TrkC (NIH-3T3-TrkC) were provided by Dr David Kaplan (University of Toronto, Toronto, ON, Canada). Cells were propagated in Dulbecco's modified Eagle medium (DMEM) supplemented with 10% fetal bovine serum (FBS; Invitrogen) and 200-400 µg/ml Geneticin. Cells were seeded into 24-well plates (30,000 cells/well) and cultured in medium consisting of 50% PBS and 50% DMEM without supplements. Following exposure to BDNF (20 ng/ml, 0.7 nM) or 10-1000 nM LM22A-4 or PTX-BD4-3 for 72-96 h, cells were suspended in 50 µl lysis buffer, transferred to white, opaque 96-well culture plates and survival was measured using the ViaLight Assay (Lonza Group, Rockland, ME, USA).

3T3-TrkC cells = experiment: NIH-3T3 cell survival (ViaLight); format: cell-based, mouse; conditions: serum-free medium, 72-96 h, PTX-BD4-3 1000 nM
Method: as §1, §2

3T3-p75 cells = experiment: NIH-3T3 cell survival (ViaLight); format: cell-based, mouse; conditions: serum-free medium, 72-96 h, PTX-BD4-3 1000 nM
Method: as §1, §2

3T3-TrkB cells = experiment: NIH-3T3 cell survival (ViaLight); format: cell-based, mouse; conditions: serum-free medium, 72-96 h, ViaLight; compounds 10-1000 nM dose-response, BDNF 20 ng/ml
Method: as §1, §2

[1] = tested on: E16 mouse hippocampal neurons; experiment: Hippocampal neuron survival (ViaLight assay and Tuj1-positive cell counts); format: cell-based; conditions: compounds 1000 nM, BDNF 20 ng/ml; vs control antibody
Text: To further confirm that PTX-BD4-3 promotes biologically relevant activity through TrkB, we examined the effect of PTX-BD4-3 on survival of cultured hippocampal neurons, using two different methods (Fig. 3A-C). […] It would be expected that although there is a correlation between survival status and mitochondrial metabolic status, one could have some degree of variability in metabolic function for a given level of cell survival. […] Because the plateau effect of PTX-BD4-3 on survival was observed between 500 nM and 1000 nM, we chose 1000 nM as a standard concentration for subsequent mechanistic studies.
Fig. 3. […] (A) Fluorescence photomicrographs (original magnification, ×40) of Tuj1-immunostained E16 mouse hippocampal neuronal cultures treated with culture medium (CM) alone, BDNF, LM22A-4 or PTX-BD4-3 for 48 h. Scale bar: 10 μm. (B) Neuron survival dose-response curves for LM22A-4 and PTX-BD4-3 were generated using the ViaLight assay; data were normalized to survival achieved with 20 ng/ml (∼0.7 nM) BDNF and compared with wells receiving culture medium medium (CM) alone. n=10-32 wells per group derived from four to five independent experiments. (C) Survival analysis of hippocampal neurons treated with either 20 ng/ml BDNF, 500 nM or 1000 nM LM22A-4 or 500 nM or 1000 nM PTX-BD4-3 for 48 h. Tuj1-positive cells counts were normalized to the survival achieved with BDNF and compared with wells treated with […]. n=32-40 wells per group derived from six independent experiments. Statistical significance in B and C was determined by one-way ANOVA with Dunnett's post hoc multiple comparison tests. *P≤0.05, ^§P≤0.001 compared to control (CM). (D) Survival of hippocampal neurons treated with CM, 20ng/ml BDNF (B), 1000 nM LM22A-4 or 1000 nM PTX-BD4-3 with or without anti-TrkB antibody (Bab) or non-immune serum (non). n=37-42 wells per group derived from five independent experiments. *P≤0.05, **P≤0.01, ***P≤0.001 (non vs Bab), Mann-Whitney test; *P≤0.05, ^ψP≤0.01, ^§P≤0.001 (compared to CM), one-way ANOVA with Dunnett's post hoc multiple comparison test.
Hippocampal neuron cultures were prepared from E16 CF1 mouse fetuses as described previously ([Yang et al., 2006]). Under the low-density conditions used here, neuronal survival is dependent, in part, on addition of exogenous neurotrophins ([Yang et al., 2008]; [Walter et al., 2011]). LM22A-4 and PTX-BD4-3 were dissolved in water at a stock concentration of 10 mM prior to dilution (1:10,000) in culture medium. Cell survival following a 48-h exposure to BDNF, LM22A-4 or PTX-BD4-3 was quantified by either counting β-tubulin III-positive cell bodies ([Massa et al., 2006]; [Walter et al., 2011]) or by the ViaLight Assay described above.

[2] = tested on: 3T3 parent line, which does not express Trk receptors; experiment: NIH-3T3 cell survival; format: cell-based, mouse; conditions: serum-free medium
TrkB = experiment: Shc adaptor protein recruitment to TrkB in HCEMs (IP/western blot); format: cell-based, human; conditions: 1 h, compounds 1000 nM, BDNF 0.7 nM
Text: Fig. 2. […] Scale bar: 10 μm. […] Scale bar: 10 μm.

“NGF: neurotrophin, cognate ligand and positive control for 3T3-TrkA cells” was tested, and the “survival of 3T3-TrkA cells” value (3T3-TrkA cells) was “supported survival”.

B1: NT-3: neurotrophin, cognate ligand and positive control for 3T3-TrkC cells (protein, UniProt P20783 139-257, looked up)
Neurotrophin-3: YAEHKSHRGEYSVCDSESLWVTDKSSAIDIRGHQVTVLGEIKTGNSPVKQYFYETRCKEARPVKNGCRGIDDKHWNSQCKTSQTYVRALTSENNKLVGWRWIRIDTSCVCALSRKIGRT
B1 was tested, and the “survival of 3T3-TrkC cells” value (3T3-TrkC cells) was “supported survival”.

B2: BDNF: Recombinant brain-derived neurotrophic factor, cognate ligand of TrkB; positive control (protein, UniProt P23560 19-247, looked up)
Neurotrophic factor BDNF …: APMKEANIRGQGGLAYPGVRTHGTLESVNGPKAGSRGLTSLADTFEHVIEELLDEDQKVRPNEENNKDADLYTSRVMLSSQVPLEPPLLFLLEEYKNYLDAANMSMRVRRHSDPARRGELSVCDSISEWVTAADKKTAVDMSGGTVTVLEKVPVSKGQLKQYFYETKCNPMGYTKEGCRGIDKRHWNSQCRTTQSYVRALTMDSKKRIGWRFIRIDTSCVCTLTIKRGR
In the case of B2, the “survival of 3T3-p75 cells” value (3T3-p75 cells) is reported as “respond”, the “survival of 3T3-TrkB cells” value (3T3-TrkB cells) is reported as “supported survival” and the “neurotrophic activity in the presence of function-blocking anti-TrkB^ECD antibody” value [1] is reported as “reduction”. The “survival of the 3T3 parent line” value [2] was “did not support survival” and the “Shc recruitment to TrkB (ratio of Shc to TrkB)” value (TrkB) was “promoted Shc recruitment to TrkB”.
